Assay results reported in IntAct's records for PubMed 24012959.

B1: "Na(+)/H(+) exchange regulatory cofactor NHE-RF1" (Homo sapiens), O14745 (parent)
chain: MSADAAAGAPLPRLCCLEKGPNGYGFHLHGEKGKLGQYIRLVEPGSPAEKAGLLAGDRLVEVNGENVEKETHQQVVSRIRAALNAVRLLVVDPETDEQLQKLGVQVREELLRAQEAPGQAEPPAAAEVQGAGNENEPREADKSHPEQRELRPRLCTMKKGPSGYGFNLHSDKSKPGQFIRSVDPDSPAEASGLRAQDRIVEVNGVCMEGKQHGDVVSAIRAGGDETKLLVVDRETDEFFKKCRVIPSQEHLNGPLPVPFTNGEIQKENSREALAEAALESPRPALVRSASSDTSEELNSQDSPPKQDSTAPSSTSSSDPILDFNISLAMAKERAHQKRSSKRAPQMDWSKKNELFSNL

Variants of: B1
Conditions: with pgfrb_human PDGFRB

| Variant | effect of a mutation on the interaction |
| --- | --- |
| D301V | increasing interaction |
